B1: SC06-198 (scFv)
scFv: QLQLQESGPGLVKPSETLSLTCAVSGYSITSGYYWGWVRQPPGKGLEWIGSIYHTGSTYYNPSLKSRVTISVDTSKNQFSLKLNSLTAADTAVYFCASQSPAFDFWGQGTMVTVSSGTGGSGGTGSGTGGSTQSVLTQPPSVSGAPGQRVTISCTGSSSNIGTGYDVHWYQQLPGTAPKLLIYGNNNRPSGVPDRFSGSKSGTSASLAITGLQAEDEADYYCATWDDSLNGWVFGGGTKLTVP
notes: Vl 133-243); also called single-chain phage antibody SC06-198
B2: SC06-409 (scFv)
scFv: EVQLVQSGAEVKKPGESLKISCKGSGYSFTNYWIGWVRQMPGKGLEWMGIIYPGDSDTRYSPSFQGQVTISADKSISTAYLQWSSLKASDTAMYYCARHTQNKNGMNTFDIWGQGTMVTVSSGTGGSGGTGSGTGGSTQSALTQPPSASGSPGQSVTISCTGTSSDIGGYNYVSWYQQHPGKAPKLMIYEVSNRPPGVSNRFSGSKSGNTASLTISGLQAEDEADYYCSSYSTTTTRVIFGGGTKLTVL
notes: Vl 139-249); also called single-chain phage antibody SC06-409
B3: SC06-246 (scFv)
scFv: EVQLVESGGGLIQPGGSLRLSCAASGFTVSSDFMTWVRQAPGRGLEWVSLIYSGGKTNYADSVKGRFTISRDNSRNTLYLQMNSLRAEDTAVYYCARSVCSTISCSKLDDWGQGTLVTVSSGTGGSGGTGSGTGGSTQAVLTQPSSVSVAPGQTARITCGGNNIGRKSVHWYQQKPGLAPVLVVNDNSDRPSGIPARFSGSNSGNTATLTISRVEAGDEADYYCHVWGSSRDHYVFGTGTKVTVL
notes: Vl 138-245); also called single-chain phage antibody SC06-246
B4: SC06-092 (scFv)
scFv: EVQLVESGGGLVQPGRSLRLSCTGSGFTFGDYAMSWFRQAPGKGLEWVGFIRNKAYGGTAEYAASVKDRFIISRDDSKSIAYLQMNSLKTEDTAVYYCVRREYDTGWLDYWGQGTLVTVSSGTGGSGGTGSGTGGSTQSALTQPPSASGSPGQSVTISCTGTSSDVGGYNYVSWYQRHPGKAPKLMIYDVTDRPSGVSNRFSGSKSGNTASLTISGLQAEDEADYYCSSYTSSSTSAVFGGGTKLTVL
notes: Vl 138-248); also called single-chain phage antibody SC06-092
B5: SC06-089 (scFv)
scFv: EVQLVETGGGLVQPGGSLRLSCAASGFTFSSYSMNWVRQAPGKGLEWVSFISSSSSTIYYADSVKGRFTIARDNAKNSLYLQMNSLRDEDTAVYYCARPVGTGISLFHAFDIWGQGTMVTVSSGTGGSGGTGSGTGGSTQSVLTQPPSVSVAPGQTARITCGGNNIGSKYVHWYQQKPGQAPVLVVYDDSDRPSGIPERFSGSNSGNTATLTISRVEAGDEADFYCQVWDGSSDPVVFGGGTKLTVL
notes: Vl 140-247); also called single-chain phage antibody SC06-089
B6: SC05-157 (scFv)
scFv: EVQLVESGAEVKKPGESLKISCKGSGYSFTNYWIGWVRQMPGKGLEWMGIVYPGDSDTRYSPSFQGQVTISADKSISTAYLQWSSLKASDTAVYYCARRMAVAGSDAFDIWGQGTMVTVSSGTGGSGGTGSGTGGSTQAVLTQPSSASGTPGQTVTISCSGSTSNIGSHNVNWYQHLPGTAPKLLIYINNKRPSGVPDRFSGSKSGSSASLAISGLQSEDEADYYCAAWDDSLRRPVFGGGTQLTVL
notes: Vl 138-247); also called single-chain phage antibody SC05-157
B7: SC06-252 (scFv)
scFv: EVQLVETGGGLVQPGGSLRLSCAASGLTFSSYAMSWVRQAPGKGLEWVSALSGSTTFYADSVKGRFTISRDNAKNTLYLQMNSLRAEDTAVYYCARGNYYGMDVWGQGTTVTVSSGTGGSGGTGSGTGGSTSYVLTQPPSASGTPGQRVTISCSGSSSNIGKFYVYWYQQFPGAAPKLLIYSNNQRPSGVPDRFSGSKSGTSASLAISGLQSEDEADYYCAAWDGSLNGYVFGTGTKVTVL
notes: Vl 132-241); also called single-chain phage antibody SC06-252
B8: SC05-166 (scFv)
scFv: QVQLVQSGAEVKKPGASVKVSCKASGYTFTSYAISWVRQAPGQGLEWMGWISAYNGNTNYARKLQGRVTMTTDTSTSTAYMELRSLRSDDTAVYYCARAGLMFTAWFGELWDHGTKDNWFDPWGQGTLVTVSSGTGGSGGTGSGTGGSTNFMLTQPHSVSESPGKTVTISCTRSSGSIASYYVQWYQQRPGSSPTTVIYEDNQRPSGVPDRFSGSIDSSSNSASLTISGLKTEDEADYYCQSYDSSNQVFGGGTKLTVL
notes: Vl 150-259); also called single-chain phage antibody SC05-166
B9: SC06-241 (scFv)
scFv: EVQLVESGGGLVQPGRSLRLSCAASGFTFRSYAMYWVRQAPGKGLEWLALISHDASKMFYADSVKGRFTISRDNSKNTLSLQMNSLTIEDTAVYYCVRERTGYYGAYWGQGTLVTVSSGTGGSGGTGSGTGGSTDIQMTQSPSSLSASVGDRVTLTCRASQGIGTWLAWYQQKPGKAPKLLIYSASSLQSGVPSRFSGSGSGTDFTLSISNLQPEDFATYYCQQANSFPITFGQGTRLEIK
notes: Vl 135-241); also called single-chain phage antibody SC06-241
B10: SC06-050 (scFv)
scFv: EVQLVESGPEVKKPGASVKVSCEASGYNLDNYGITWVRQAPGQGLEWLGWISAYNAKTEYGQRLQGRVTMTTDTATSTAYLELRSLRSDDTAVYYCARVLGYRGGWYDEGDAFDVWGQGTMVTVSSGTGGSGGTGSGTGGSTDIQLTQSPSFLSASVGDRVTITCRASQGIRSHLAWYQQKAGKAPKLLIYAASTLQSGVPSRFSGSGSGTEFTLTISSLQPDDFAAYYCQQLNTYPITFGQGTRLEIK
notes: Vl 143-249); also called single-chain phage antibody SC06-050
B11: SC06-079 (scFv)
scFv: EVQLVESGGGLVQPGGSLRLSCAASGFTFSSYAMSWVRQAPGKGLEWVSAISGTGGSAYYADSVKGRFTISRDNSKNTVYLQMNSLRAEDTAVYYCAKGHSSGTNWGQGTLVTVSSGTGGSGGTGSGTGGSTSYVLTQPPSASGTPGQRVTISCSGSSSNIGSNFVYWYQQLPGTAPKLLIYRNNQRPSGVPDRFSGSKSGTSASLAISGLRSEDEADYYCAAWDDSLSGVLFGGGTQLTVL
notes: Vl 133-242); also called single-chain phage antibody SC06-079
B12: SC06-242 (scFv)
scFv: EVQLVESGPGLVKPSETLSLTCTVSGGSISSYYWSWIRQPPGKGLEWIGYIYYTGTTNYNPSLNSRVTISADTSKNQFSLKLSSVTAADTAVYYCARGGQTAGVWGKGTTVTVSSGTGGSGGTGSGTGGSTQSVLTQPPSVSVAPGQTARITCGGYNIGRKSVHWYQQKPGLAPVLVVYDNSDRPSGIPARFSGSNSGNTATLTISGTQAMDEADYYCQAWDRGTAVFGTGTKVTVL
notes: Vl 132-237); also called single-chain phage antibody SC06-242
B13: SC06-195 (scFv, V domains shown)
VH: EVQLVESGGGVVQPGRSLRLSCAASGFTFSSYGMHWVRQAPGKGLEWVAVIWYDGSNKYYADSVKGRFTISRDNSQNTLYLQMNSLRAEDTAVYYCTSYAIAATPGQGTLVTVSS
VL: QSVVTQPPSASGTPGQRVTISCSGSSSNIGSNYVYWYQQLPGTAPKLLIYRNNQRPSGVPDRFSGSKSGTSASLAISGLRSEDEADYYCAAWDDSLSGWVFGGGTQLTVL
B14: SC06-077 (scFv)
scFv: QVQLVQSGAEVKKPGSSVKVSCKASGGTFSSYAISWVRQAPGQGLEWMGGIIPIFGTANYAQKFQGRVTITADESTSTAYMELSSLRSEDTAVYYCAREGGVGPAFDIWGQGTMVTVSSGTGGSGGTGSGTGGSTDIQMTQSPDSLAVSLGERATINCKSSQSVLHNSNNKNYLAWYQQKPGQPPKLLIYWASTRESGVPDRFSGSGSGTDFTLTISSLQAEDVAVYYCQQYYGSPYTFGQGTKLEIK
notes: Vl 136-248); also called single-chain phage antibody SC06-077
B15: SC06-071 (scFv)
scFv: EVQLVESGGGVVQPGRSLRLSCAASGFTFSSYGMHWVRQAPGKGLEWVAMIWSDGSNKYYADSVKGRFTISRDNSKNTLYLQMNSLRVEDTAVYYCASNYGSGSYWGGFDYWGQGTLVTVSSGTGGSGGTGSGTGGSTQSALTQPASVSGSPGQSITISCTGTSSDVGGYNLVSWYQQHPGKAPKLMIYEGSKRPSGVSNRFFGSKSGDTASLTISGLQAEDEADYYCSSYTTSSTHVFGTGTKVTVL
notes: Vl 139-248); also called single-chain phage antibody SC06-071
B16: SC06-191 (scFv)
scFv: EVQLVESGGGVVQPGRSLRLSCVASEFTFSNYGMHWVRQAPGKGLEWVAVIWYDGSNEDYADSVKGRFTISRDNSKNTVYLHMNSLRAEDTAVYFCTRGQYSSTWFLDYWGQGTLVTVSSGTGGSGGTGSGTGGSTDIQLTQSPSTLSASVGDRVTITCRASQSISSWLAWYQQKPGKAPKLLIYKASSLETGVPSRFSGSGSGTDFTLTISSLQPEDFATYYCQQANSFPLTFGGGTKVDIK
notes: Vl 137-243); also called single-chain phage antibody SC06-191
B17: SC06-078 (scFv)
scFv: EVQLVESGAEVKKPGSSVKVSCKASGGTFSSYAISWVRQAPGQGLEWMGGIIPIFGTANYAQKFQGKVTITADESTSTAYMELSSLRSEDTAVYYCARLSPRYYGMDVWGQGTTVTVSSGTGGSGGTGSGTGGSTQSALTQPRSVSGSPGQSVTISCTGTSSDVGGYNYVSWYQQHPGKAPKLMIYGGSERPSGVSNRFSGSKSGNTASLTISGVQAEDEADYYCSSYTSSGTLLFGGGTQLTVL
notes: Vl 136-245); also called single-chain phage antibody SC06-078
B18: SC06-087 (scFv)
scFv: EVQLVESGGGLVKPGGSLRLSCAASGFTFSSNSMNWVRQAPGKGLEWVSFISSSSTYIYYADSVKGRFTISRDNAKNSLYLQMNSLRAEDTAVYYCARESAAGISYDAFDIWGQGTMVTVSSGTGGSGGTGSGTGGSTQSALTQPASVSGSPGQSITISCTGTSSDVGGYKYVSWYQQHPGKAPKLMIYEVSNRPSGVSNRFSGSKSGSTASLTISGLQAEDEADYYCSSYTSSSTLGVFGTGTKVTVL
notes: Vl 139-249); also called single-chain phage antibody SC06-087

Columns and labels:
[1] = biological target: T1, bovine serum albumin (BSA) (bovine, UniProt P02769 25-607); test: phage ELISA, BSA coated
T1 construct: Control antigen coated at 1% in PBS (pH 7.4); also called negative control antigen
T1 sequence (P02769 25-607 limits assumed): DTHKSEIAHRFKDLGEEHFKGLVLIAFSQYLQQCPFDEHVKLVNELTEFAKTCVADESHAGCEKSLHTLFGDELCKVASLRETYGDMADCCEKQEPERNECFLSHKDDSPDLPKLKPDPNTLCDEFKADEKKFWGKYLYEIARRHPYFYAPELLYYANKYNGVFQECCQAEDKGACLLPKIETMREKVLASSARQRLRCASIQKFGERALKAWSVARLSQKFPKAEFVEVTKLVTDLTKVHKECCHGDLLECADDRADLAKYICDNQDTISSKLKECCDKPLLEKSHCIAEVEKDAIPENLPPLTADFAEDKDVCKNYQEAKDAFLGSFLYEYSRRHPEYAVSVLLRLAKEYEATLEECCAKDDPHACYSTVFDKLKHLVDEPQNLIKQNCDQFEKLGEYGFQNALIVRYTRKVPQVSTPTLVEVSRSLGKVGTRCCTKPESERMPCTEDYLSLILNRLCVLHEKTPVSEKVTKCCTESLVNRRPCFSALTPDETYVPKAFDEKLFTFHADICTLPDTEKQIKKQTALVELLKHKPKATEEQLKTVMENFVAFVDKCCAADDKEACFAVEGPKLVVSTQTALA
Experimental: (§1) Selected single-chain phage antibodies that were obtained in the screens described above were validated in ELISA for specific enterococcal binding activity, i.e. binding to one or more enterococcal strains prepared as described supra. 2.5×10⁸ bacteria were coated overnight at 4° C. to Maxisorp™ ELISA plates in 50 μl 50 mM carbonate buffer, pH 9.6. As negative controls, the complex antigens 2% ELK and 1% BSA both in PBS (pH 7.4) were coated. Wells were washed in PBS containing 0.1% (v/v) Tween-20 and blocked with 300 μl PBS containing 2% ELK for at least 1 hour at room temperature. The selected single-chain phage antibodies were incubated for 15 minutes in an equal volume of PBS containing 2% ELK to obtain blocked phage antibodies. The plates were emptied and the blocked single-chain phage antibodies were added to the wells. Incubation was allowed to proceed for one hour at room temperature, the plates were washed in PBS containing 0.1% (v/v) Tween-20 and bound phage antibodies were detected using an anti-M13 antibody conjugated to peroxidase. Absorbance at 492 nm was measured using a spectrophotometer. As a control, the procedure was performed simultaneously without single-chain phage antibody and with a negative control single-chain phage antibody directed against West Nile virus envelope protein (SC04-374).

[2] = biological target: T1, bovine serum albumin (BSA); test: phage ELISA, 1% BSA coated, anti-M13-HRP detection
Experimental: as §1

Row | Binder | binding result [1] | OD492 nm [2] [OD492 nm]
1 | B1 | no binding | 0.049
2 | B2 | no binding | 0.055
3 | B3 | no binding | 0.042
4 | B4 | no binding | 0.047
5 | B5 | no binding | 0.042
6 | B6 | no binding | 0.058
7 | B7 | no binding | 0.044
8 | B8 |  | 0.104
9 | B9 | no binding | 0.052
10 | B10 | no binding | 0.043
11 | B11 | no binding | 0.048
12 | B12 | no binding | 0.043
13 | B13 |  | 0.046
14 | B14 | no binding | 0.044
15 | B15 | no binding | 0.043
16 | B16 | no binding | 0.044
17 | B17 | no binding | 0.073
18 | B18 | no binding | 0.044

— patent publication US20090169562A1 (CRUCELL HOLLAND B V, published 2009)
